Results reported in US20250382602.
Substitutions are numbered along the chain they refer to.

Key:
Conditions in all cases: nanopore translocation; background mutations not given
[1] = target: T1, Dda 1993 K177M K177M (Enterobacteria phage T4) (UniProt P32270)
T1 sequence: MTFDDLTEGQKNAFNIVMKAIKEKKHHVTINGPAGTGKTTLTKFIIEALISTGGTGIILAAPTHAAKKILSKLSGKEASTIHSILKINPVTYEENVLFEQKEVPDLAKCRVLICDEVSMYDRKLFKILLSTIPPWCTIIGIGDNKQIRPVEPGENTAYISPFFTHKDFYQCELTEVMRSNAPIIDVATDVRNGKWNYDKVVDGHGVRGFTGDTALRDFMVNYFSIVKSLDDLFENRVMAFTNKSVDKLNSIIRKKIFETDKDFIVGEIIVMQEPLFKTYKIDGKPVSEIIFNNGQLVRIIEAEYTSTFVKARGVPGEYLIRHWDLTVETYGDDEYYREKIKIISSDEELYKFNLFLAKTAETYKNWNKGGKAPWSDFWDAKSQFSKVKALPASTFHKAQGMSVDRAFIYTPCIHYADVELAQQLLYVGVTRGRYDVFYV

[2] = target: T2, Dda 1993 K177Y K177Y (Enterobacteria phage T4) (UniProt P32270)
T2 sequence: T1 sequence with M177Y

[3] = target: T3, Dda 1993 K177V K177V (Enterobacteria phage T4) (UniProt P32270)
T3 sequence: T1 sequence with M177V

[4] = target: T4, Dda 1993 K177W K177W (Enterobacteria phage T4) (UniProt P32270)
T4 sequence: T1 sequence with M177W

[5] = target: T5, Dda 1993 K177E K177E (Enterobacteria phage T4) (UniProt P32270)
T5 sequence: T1 sequence with M177E

[6] = target: T6, Dda 1993 K177Q K177Q (Enterobacteria phage T4) (UniProt P32270)
T6 sequence: T1 sequence with M177Q

Substance: barcoded 3.6 kb DNA analyte ligated to sequencing Y adaptor
- activity (bps speed delta vs control) [1]: 48.3
- activity (bps speed delta vs control) [2]: -43.9
- activity (bps speed delta vs control) [3]: -16
- activity (bps speed delta vs control) [4]: -23.4
- activity (bps speed delta vs control) [5]: 58.7
- activity (bps speed delta vs control) [6]: 59.7
